Earlier results on one substance are cited in paper PMC3985519.

The target in the data set is von Willebrand factor (Homo sapiens) (UniProt P04275).

A word on the Kd: it is the free concentration of one partner at which half of the binding sites on the other are occupied at equilibrium, for simple one-to-one binding. With Factor VIII (from UniProt P00451), the dissociation constant (Kd) is 0.5 nM.
